Measured values reported in the supplement of paper PMC9112550, “Optimization of the antimicrobial peptide Bac7 by deep mutational scanning” (BMC Biology, 2022).

system: Escherichia coli TOP10; test: shrunken log2 fold change of peptide-encoding DNA abundance (4.5 h post-induction vs induction); higher = less antimicrobial activity (less host growth inhibition); settings: time post-induction: 4.5 h; library: site-saturation at positions 5, 18, 19, 20
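Further: peptides expressed intracellularly from a pBAD plasmid library in pooled LB shake-flask culture, induced with 0.3% L-arabinose, DNA abundance read by NGS, three biological replicates, DESeq2 with apeglm shrinkage.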

Sequence | shrunken log2 fold change
RRIRNRPPRLPRPRPRPDWFPRP | -0.0803
RRIRTRPPRLPRPRPRPFCAPRP | -0.00433
RRIRHRPPRLPRPRPRPTNKPRP | -0.557
RRIRLRPPRLPRPRPRPQSGPRP | -0.0923
RRIRVRPPRLPRPRPRPRACPRP | 0.274
RRIRDRPPRLPRPRPRPWSTPRP | -0.274
RRIRMRPPRLPRPRPRPSLWPRP | 1.72
RRIRSRPPRLPRPRPRPMYAPRP | -0.29
RRIRKRPPRLPRPRPRPYPEPRP | -0.0874
RRIRDRPPRLPRPRPRPDLQPRP | 1.54
RRIRNRPPRLPRPRPRPQTAPRP | -0.0947
RRIRTRPPRLPRPRPRPEIPPRP | -0.104
RRIRRRPPRLPRPRPRPCHDPRP | -0.105
RRIRYRPPRLPRPRPRPFLAPRP | -0.649
RRIRRRPPRLPRPRPRPISIPRP | -0.0402
RRIRCRPPRLPRPRPRPENEPRP | 0.113
RRIRARPPRLPRPRPRPPYMPRP | -0.467
RRIRLRPPRLPRPRPRPAYFPRP | -0.364
RRIRVRPPRLPRPRPRPFLFPRP | -0.205
RRIRMRPPRLPRPRPRPPDCPRP | 0.865
RRIRSRPPRLPRPRPRPRATPRP | 0.301
RRIRSRPPRLPRPRPRPHPCPRP | 0.0687
RRIRFRPPRLPRPRPRPVNMPRP | -1.23
RRIRYRPPRLPRPRPRPLGRPRP | -0.191
RRIRRRPPRLPRPRPRPDMSPRP | -0.433

Sequence | shrunken log2 fold change
RRIRNRPPRLPRPRPRPMVMPRP | -0.383
RRIRPRPPRLPRPRPRPFCVPRP | 0.156
RRIRWRPPRLPRPRPRPKTCPRP | 0.174
RRIRLRPPRLPRPRPRPMFTPRP | -0.0806
RRIRYRPPRLPRPRPRPSISPRP | -0.601
RRIRMRPPRLPRPRPRPMEMPRP | 0.515
RRIRERPPRLPRPRPRPHILPRP | -0.245
RRIRERPPRLPRPRPRPTTLPRP | -0.325
RRIRYRPPRLPRPRPRPEAQPRP | 0.151
RRIRIRPPRLPRPRPRPDGYPRP | -0.00133
RRIRGRPPRLPRPRPRPPFIPRP | 0.627
RRIRPRPPRLPRPRPRPMSLPRP | -0.769
RRIRGRPPRLPRPRPRPRTFPRP | 1.1
RRIRWRPPRLPRPRPRPLFFPRP | -0.00386
RRIRARPPRLPRPRPRPVYGPRP | -0.235
RRIRCRPPRLPRPRPRPDWYPRP | -0.241
RRIRDRPPRLPRPRPRPRIQPRP | -0.0934
RRIRWRPPRLPRPRPRPHFWPRP | 0.27
RRIRSRPPRLPRPRPRPLWTPRP | 0.0886
RRIRPRPPRLPRPRPRPICDPRP | -0.0726
RRIRSRPPRLPRPRPRPNNMPRP | -0.534
RRIRFRPPRLPRPRPRPLDQPRP | 0.0734
RRIRHRPPRLPRPRPRPGYVPRP | -0.211
RRIRCRPPRLPRPRPRPCCIPRP | -0.166
RRIRGRPPRLPRPRPRPFFMPRP | 0.374

Sequence | shrunken log2 fold change
RRIRERPPRLPRPRPRPFRYPRP | -0.268
RRIRYRPPRLPRPRPRPYENPRP | 0.0075
RRIRQRPPRLPRPRPRPETGPRP | 0.0496
RRIRLRPPRLPRPRPRPFQVPRP | -0.0146
RRIRRRPPRLPRPRPRPIGFPRP | 0.0265
RRIRIRPPRLPRPRPRPFPFPRP | -1.39
RRIRRRPPRLPRPRPRPLMGPRP | 0.018
RRIRGRPPRLPRPRPRPAGQPRP | 0.727
RRIRRRPPRLPRPRPRPFMIPRP | -0.394
RRIRMRPPRLPRPRPRPTCAPRP | 0.827
RRIRTRPPRLPRPRPRPAKSPRP | -0.055
RRIRDRPPRLPRPRPRPDLGPRP | 0.829
RRIRGRPPRLPRPRPRPEQIPRP | 0.438
RRIRKRPPRLPRPRPRPWLLPRP | 0.0409
RRIRERPPRLPRPRPRPWALPRP | -0.144
RRIRYRPPRLPRPRPRPRCQPRP | -0.259
RRIRARPPRLPRPRPRPCGIPRP | 0.23
RRIRWRPPRLPRPRPRPIHHPRP | -0.332
RRIRKRPPRLPRPRPRPAREPRP | 0.89
RRIRNRPPRLPRPRPRPCYQPRP | -0.32
RRIRSRPPRLPRPRPRPLADPRP | -0.0259
RRIRHRPPRLPRPRPRPWMIPRP | -0.00164
RRIRKRPPRLPRPRPRPLSSPRP | 0.115
RRIRKRPPRLPRPRPRPHENPRP | -0.00978
RRIRARPPRLPRPRPRPVFCPRP | 0.487

Sequence | shrunken log2 fold change
RRIRFRPPRLPRPRPRPLNNPRP | -0.767
RRIRARPPRLPRPRPRPHVNPRP | -0.467
RRIRVRPPRLPRPRPRPTLIPRP | 0.0816
RRIRSRPPRLPRPRPRPITEPRP | 0.0453
RRIRKRPPRLPRPRPRPNFQPRP | 0.287
RRIRCRPPRLPRPRPRPCLRPRP | -0.229
RRIRGRPPRLPRPRPRPHIQPRP | 0.192
RRIRTRPPRLPRPRPRPKGPPRP | 0.0618
RRIRNRPPRLPRPRPRPAVKPRP | -0.229
RRIRHRPPRLPRPRPRPSQVPRP | 0.176
RRIRKRPPRLPRPRPRPSILPRP | -0.11
RRIRDRPPRLPRPRPRPMVNPRP | -0.0813
RRIRDRPPRLPRPRPRPTWAPRP | 0.168
RRIRFRPPRLPRPRPRPKQRPRP | 0.384
RRIRWRPPRLPRPRPRPQQSPRP | -0.0166
RRIRSRPPRLPRPRPRPPTLPRP | 0.0631
RRIRQRPPRLPRPRPRPGNQPRP | 0.0157
RRIRPRPPRLPRPRPRPVVPPRP | 0.134
RRIRIRPPRLPRPRPRPKKLPRP | -0.219
RRIRNRPPRLPRPRPRPLDPPRP | -0.117
RRIRIRPPRLPRPRPRPNNNPRP | -0.982
RRIRIRPPRLPRPRPRPGHLPRP | -0.101
RRIRTRPPRLPRPRPRPSQAPRP | 0.0983
RRIRTRPPRLPRPRPRPMHQPRP | -0.0917
RRIRDRPPRLPRPRPRPNFLPRP | -0.277

Sequence | shrunken log2 fold change
RRIRNRPPRLPRPRPRPKYAPRP | -0.292
RRIRSRPPRLPRPRPRPQWPPRP | 0.121
RRIRQRPPRLPRPRPRPPDTPRP | 0.103
RRIRARPPRLPRPRPRPPGFPRP | 0.59
RRIRFRPPRLPRPRPRPKKKPRP | -0.00928
RRIRRRPPRLPRPRPRPGGYPRP | -0.0378
RRIRSRPPRLPRPRPRPNDTPRP | -0.437
RRIRPRPPRLPRPRPRPTSQPRP | 0.0453
RRIRTRPPRLPRPRPRPGGHPRP | 0.0329
RRIRYRPPRLPRPRPRPFFYPRP | -0.614
RRIRTRPPRLPRPRPRPRNMPRP | -0.493
RRIRIRPPRLPRPRPRPHISPRP | -0.0489
RRIRCRPPRLPRPRPRPLKFPRP | -0.162
RRIRERPPRLPRPRPRPTNPPRP | -0.182
RRIRFRPPRLPRPRPRPWKDPRP | -0.192
RRIRRRPPRLPRPRPRPVVPPRP | 0.47
RRIRMRPPRLPRPRPRPTHVPRP | -0.00477
RRIRSRPPRLPRPRPRPDCGPRP | 0.0769
RRIRWRPPRLPRPRPRPRSKPRP | 0.118
RRIRVRPPRLPRPRPRPGHSPRP | -0.195
RRIRVRPPRLPRPRPRPHFVPRP | -0.0262
RRIRPRPPRLPRPRPRPAELPRP | 0.335
RRIRWRPPRLPRPRPRPHTMPRP | -0.00694
RRIRRRPPRLPRPRPRPSQQPRP | -0.0599
RRIRVRPPRLPRPRPRPAMWPRP | -0.0044
